Tests used:
[1] = biological target: CT-MRAP2, C-terminal domain of MRAP2 fused to a poly-his tag (human) (UniProt Q96G30); test: SDS-PAGE; purified His-tagged CT-MRAP2 resolved by SDS-PAGE under denaturing conditions, anti-His blot
[2] = biological target: CT-MRAP2, C-terminal domain of MRAP2 fused to a poly-his tag (human) (UniProt Q96G30); test: native gel or EMSA; blue native PAGE of 20 μg purified C-terminal MRAP2 domain, 3% to 16% Bis-Tris gel, 0 °C, anti-His blot; molecular weights only approximate

stoichiometry N [1]: 2
stoichiometry N [2]: 2
Substance: CT-MRAP2, C-terminal domain of MRAP2 fused to a poly-his tag (from UniProt Q96G30 76-205) (domain or fragment)

From article PMC8946000
